{"source": "patent US20180125988A1", "about": "“TARGETED XTEN CONJUGATE COMPOSITIONS AND METHODS OF MAKING SAME” (AMUNIX OPERATING INC., priority 2014, published 2018)", "key": {"[1]": {"assay": "Analytical size exclusion chromatography of XTEN fusion proteins", "assay_type": "physicochemical", "settings": "for RH (nm), hydrodynamic radius / Apparent MW (kDa): SEC; for Apparent MW (kDa): BioRad calibration standard; for Apparent Molecular Weight Factor: ratio of apparent molecular weight to calculated molecular weight"}, "[2]": {"assay": "Half-life of XTEN_AG864 in cynomolgus monkeys", "assay_type": "in vivo", "source_text": "The methods and materials utilized were adapted from those of Example 1, above."}, "[3]": {"molecular_target": "T1, human neutrophil elastase (Homo sapiens, UniProt P08246)", "T1 construct": "purchased R&D Systems", "T1 sequence (P08246 30-267)": "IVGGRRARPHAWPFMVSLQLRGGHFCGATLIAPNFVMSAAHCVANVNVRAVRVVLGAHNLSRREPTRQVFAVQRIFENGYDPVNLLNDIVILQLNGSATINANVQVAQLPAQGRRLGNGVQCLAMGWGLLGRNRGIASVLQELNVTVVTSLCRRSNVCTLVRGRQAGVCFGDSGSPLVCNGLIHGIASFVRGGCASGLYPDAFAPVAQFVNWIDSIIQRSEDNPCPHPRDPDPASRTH", "assay": "Neutrophil elastase digestion of XTEN_AE864 (SDS-PAGE)", "assay_type": "biochemical", "settings": "10 μM XTEN, 37° C., 2 hours", "description": "It had been speculated that neutrophil elastase, a serine protease with broad substrate specificity, may be able to degrade XTEN. […] 10 μM of purified XTEN_AE864 was incubated with 1:1000 or 1:100 molar ratio (elastase:XTEN) of human neutrophil elastase (R&D Systems) at 37° C. for 2 hours. Samples before and after digestion were analyzed on SDS-PAGE gel followed with coomassie staining (FIG. 86)."}, "[4]": {"assay": "Biodegradation of XTEN in rat plasma, rat kidney homogenate and PBS buffer (SDS-PAGE)", "assay_type": "in vitro ADME", "settings": "0.3 mg/ml", "description": "Purified XTEN_AE864 protein was incubated at a final concentration of 0.3 mg/ml in rat plasma (Bioreclamation IVT, Baltimore, Md.), rat kidney homogenate (Bioreclamation), or PBS buffer for up to 7 days at 37° C. Samples were withdrawn at time 0, 4 hours, 24 hours, and 7 days, were immediately frozen and stored at -80° C., then thawed right before analysis. XTEN was extracted from the samples by methanol precipitation. Briefly, methanol pre-chilled at −20° C. was added to the samples at a volume ratio of 2:1 and mixed by vortex. The mixture was kept at −20° C. for 30 min and then centrifuged at 14,000 rpm for 20 min at 8° C. The supernatant was subjected to centrifugal evaporation for 1-2 hours to take the sample to complete dryness, and was then resuspended in PBS buffer to the original volume before methanol extraction. The reconstituted samples were analyzed by SDS-PAGE with staining using Stains-all."}}}
{"molecule": "AC398: fusion protein of FVII with AE288 (protein) AVFVTQEEAHGVLHRRRRANAFLEELRPGSLERECKEEQCSFEEAREIFKDAERTKLFWISYSDGDQCASSPCQNGGSCKDQLQSYICFCLPAFEGRNCETHKDDQLICVNENGGCEQYCSDHTGTKRSCRCHEGYSLLADGVSCTPTVEYPCGKIPILEKRNASKPQGRIVGGKVCPKGECPWQVLLLVNGAQLCGGTLINTIWVVSAAHCFDKIKNWRNLIAVLGEHDLSEHDGDEQSRRVAQVIIPSTYVPGTTNHDIALLRLHQPVVLTDHVVPLCLPERTFSERTLAFVRFSLVSGWGQLLDRGATALELMVLNVPRLMTQDCLQQSRKVGDSPNITEYMFCAGYSDGSKDSCKGDSGGPHATHYRGTWYLTGIVSWGQGCATVGHFGVYTRVSQYIEWLQKLMRSEPRPGVLLRAPFPGSPGTSESATPESGPGSEPATSGSETPGTSESATPESGPGSEPATSGSETPGTSESATPESGPGTSTEPSEGSAPGSPAGSPTSTEEGTSESATPESGPGSEPATSGSETPGTSESATPESGPGSPAGSPTSTEEGSPAGSPTSTEEGTSTEPSEGSAPGTSESATPESGPGTSESATPESGPGTSESATPESGPGSEPATSGSETPGSEPATSGSETPGSPAGSPTSTEEGTSTEPSEGSAPGTSTEPSEGSAPGSEPATSGSETPGTSESATPESGPGTSTEPSEGSAPGSSS", "values": [{"measurement": "RH (nm), hydrodynamic radius", "setting": "[1]", "value": 8.2, "unit": "nm"}, {"measurement": "Apparent MW (kDa)", "setting": "[1]", "value": 650, "unit": "kDa"}, {"measurement": "Apparent Molecular Weight Factor", "setting": "[1]", "value": 8.5}]}
{"molecule": "AC404: fusion protein of FVII with AE864 (protein) AVFVTQEEAHGVLHRRRRANAFLEELRPGSLERECKEEQCSFEEAREIFKDAERTKLFWISYSDGDQCASSPCQNGGSCKDQLQSYICFCLPAFEGRNCETHKDDQLICVNENGGCEQYCSDHTGTKRSCRCHEGYSLLADGVSCTPTVEYPCGKIPILEKRNASKPQGRIVGGKVCPKGECPWQVLLLVNGAQLCGGTLINTIWVVSAAHCFDKIKNWRNLIAVLGEHDLSEHDGDEQSRRVAQVIIPSTYVPGTTNHDIALLRLHQPVVLTDHVVPLCLPERTFSERTLAFVRFSLVSGWGQLLDRGATALELMVLNVPRLMTQDCLQQSRKVGDSPNITEYMFCAGYSDGSKDSCKGDSGGPHATHYRGTWYLTGIVSWGQGCATVGHFGVYTRVSQYIEWLQKLMRSEPRPGVLLRAPFPGSPGSPAGSPTSTEEGTSESATPESGPGTSTEPSEGSAPGSPAGSPTSTEEGTSTEPSEGSAPGTSTEPSEGSAPGTSESATPESGPGSEPATSGSETPGSEPATSGSETPGSPAGSPTSTEEGTSESATPESGPGTSTEPSEGSAPGTSTEPSEGSAPGSPAGSPTSTEEGTSTEPSEGSAPGTSTEPSEGSAPGTSESATPESGPGTSTEPSEGSAPGTSESATPESGPGSEPATSGSETPGTSTEPSEGSAPGTSTEPSEGSAPGTSESATPESGPGTSESATPESGPGSPAGSPTSTEEGTSESATPESGPGSEPATSGSETPGTSESATPESGPGTSTEPSEGSAPGTSTEPSEGSAPGTSTEPSEGSAPGTSTEPSEGSAPGTSTEPSEGSAPGTSTEPSEGSAPGSPAGSPTSTEEGTSTEPSEGSAPGTSESATPESGPGSEPATSGSETPGTSESATPESGPGSEPATSGSETPGTSESATPESGPGTSTEPSEGSAPGTSESATPESGPGSPAGSPTSTEEGSPAGSPTSTEEGSPAGSPTSTEEGTSESATPESGPGTSTEPSEGSAPGTSESATPESGPGSEPATSGSETPGTSESATPESGPGSEPATSGSETPGTSESATPESGPGTSTEPSEGSAPGSPAGSPTSTEEGTSESATPESGPGSEPATSGSETPGTSESATPESGPGSPAGSPTSTEEGSPAGSPTSTEEGTSTEPSEGSAPGTSESATPESGPGTSESATPESGPGTSESATPESGPGSEPATSGSETPGSEPATSGSETPGSPAGSPTSTEEGTSTEPSEGSAPGTSTEPSEGSAPGSEPATSGSETPGTSESATPESGPGTSTEPSEGSAPGSSS", "values": [{"measurement": "RH (nm), hydrodynamic radius", "setting": "[1]", "value": 10.1, "unit": "nm"}, {"measurement": "Apparent MW (kDa)", "setting": "[1]", "value": 1900, "unit": "kDa"}, {"measurement": "Apparent Molecular Weight Factor", "setting": "[1]", "value": 14.7}]}
{"molecule": "XTEN_AG864: extended recombinant polypeptide of 864 amino acids, AG motif family (protein, conjugated, extended recombinant polypeptide of 864 amino acids, AG motif family) GASPGTSSTGSPGSSPSASTGTGPGSSPSASTGTGPGTPGSGTASSSPGSSTPSGATGSPGSSPSASTGTGPGASPGTSSTGSPGTPGSGTASSSPGSSTPSGATGSPGTPGSGTASSSPGASPGTSSTGSPGASPGTSSTGSPGTPGSGTASSSPGSSTPSGATGSPGASPGTSSTGSPGTPGSGTASSSPGSSTPSGATGSPGSSPSASTGTGPGSSPSASTGTGPGSSTPSGATGSPGSSTPSGATGSPGASPGTSSTGSPGASPGTSSTGSPGASPGTSSTGSPGTPGSGTASSSPGASPGTSSTGSPGASPGTSSTGSPGASPGTSSTGSPGSSPSASTGTGPGTPGSGTASSSPGASPGTSSTGSPGASPGTSSTGSPGASPGTSSTGSPGSSTPSGATGSPGSSTPSGATGSPGASPGTSSTGSPGTPGSGTASSSPGSSTPSGATGSPGSSTPSGATGSPGSSTPSGATGSPGSSPSASTGTGPGASPGTSSTGSPGASPGTSSTGSPGTPGSGTASSSPGASPGTSSTGSPGASPGTSSTGSPGASPGTSSTGSPGASPGTSSTGSPGTPGSGTASSSPGSSTPSGATGSPGTPGSGTASSSPGSSTPSGATGSPGTPGSGTASSSPGSSTPSGATGSPGSSTPSGATGSPGSSPSASTGTGPGSSPSASTGTGPGASPGTSSTGSPGTPGSGTASSSPGSSTPSGATGSPGSSPSASTGTGPGSSPSASTGTGPGASPGTSSTGSPGASPGTSSTGSPGSSTPSGATGSPGSSPSASTGTGPGASPGTSSTGSPGSSPSASTGTGPGTPGSGTASSSPGSSTPSGATGSPGSSTPSGATGSPGASPGTSSTGSP", "values": [{"measurement": "half-life", "setting": "[2]", "value": "exceeding 60 h"}]}
{"molecule": "XTEN_AE864: extended recombinant polypeptide of 864 amino acids, AE motif family (protein, conjugated, extended recombinant polypeptide of 864 amino acids, AE motif family) GSPAGSPTSTEEGTSESATPESGPGTSTEPSEGSAPGSPAGSPTSTEEGTSTEPSEGSAPGTSTEPSEGSAPGTSESATPESGPGSEPATSGSETPGSEPATSGSETPGSPAGSPTSTEEGTSESATPESGPGTSTEPSEGSAPGTSTEPSEGSAPGSPAGSPTSTEEGTSTEPSEGSAPGTSTEPSEGSAPGTSESATPESGPGTSTEPSEGSAPGTSESATPESGPGSEPATSGSETPGTSTEPSEGSAPGTSTEPSEGSAPGTSESATPESGPGTSESATPESGPGSPAGSPTSTEEGTSESATPESGPGSEPATSGSETPGTSESATPESGPGTSTEPSEGSAPGTSTEPSEGSAPGTSTEPSEGSAPGTSTEPSEGSAPGTSTEPSEGSAPGTSTEPSEGSAPGSPAGSPTSTEEGTSTEPSEGSAPGTSESATPESGPGSEPATSGSETPGTSESATPESGPGSEPATSGSETPGTSESATPESGPGTSTEPSEGSAPGTSESATPESGPGSPAGSPTSTEEGSPAGSPTSTEEGSPAGSPTSTEEGTSESATPESGPGTSTEPSEGSAPGTSESATPESGPGSEPATSGSETPGTSESATPESGPGSEPATSGSETPGTSESATPESGPGTSTEPSEGSAPGSPAGSPTSTEEGTSESATPESGPGSEPATSGSETPGTSESATPESGPGSPAGSPTSTEEGSPAGSPTSTEEGTSTEPSEGSAPGTSESATPESGPGTSESATPESGPGTSESATPESGPGSEPATSGSETPGSEPATSGSETPGSPAGSPTSTEEGTSTEPSEGSAPGTSTEPSEGSAPGSEPATSGSETPGTSESATPESGPGTSTEPSEGSAP", "values": [{"measurement": "degradation by neutrophil elastase", "setting": "[3]; 1:100 molar ratio (elastase:XTEN)", "value": "completely digested"}, {"measurement": "degradation by neutrophil elastase", "setting": "[3]; 1:1000 molar ratio (elastase:XTEN)", "value": "Partial degradation"}, {"measurement": "degradation in PBS buffer", "setting": "[4]; PBS buffer, 7 day incubation at 37° C.", "value": "only minor signs of degradation"}, {"measurement": "degradation in rat kidney homogenate", "setting": "[4]; rat kidney homogenate, 37° C., by the 24 hour interval", "value": "rapidly degraded"}, {"measurement": "degradation in rat plasma", "setting": "[4]; rat plasma, 7 day incubation at 37° C.", "value": "only minor signs of degradation"}]}
